Measured values published in the RNAGym collection of RNA variant scans (doi:10.7554/elife.80360).

B1: HDV Ribozyme (parent)
chain: GGCCGGCAUGGUCCCAGCCUCCUCGCUGGCGCCGGCUGGGCAACAUUCCGAGGGGACCGUCCCCUCGGUAAUGGCGAAUGGGACCCA

Variants of: B1
Assay: self-cleavage, relative activity (ratio to wild type); higher = more cleavage; co-transcriptional

| Variant | self-cleavage |
| --- | --- |
| GGCCGGAAUGGUCCCAGCCUCCUCGCUGGCGCCGGCUGGGCAACAUUCCGAGGGGACCGUCCCCUCGGUAAUGGCUAAUGGGACCCA | 0.849 |
| GGCCGGCAUGGUCCCAGCCUCCUCGCUGGCGCCGGCUGGGCAACAUUCCGAGGGGACCGUCCCCUCCGUAAUGGCGAAUGGGACCAA | 0.972 |
| GACCGGCAUGUUCCCAGCCUCCUCGCUGGCGCCGGCUGGGCAACAUUCCGAGGGGACCGUCCCCUCGGUAAUGGCGAAUGGGACCCA | 0.0328 |
| GGCCGGCAUGGUUCCAGCCUCCUCGCUGGCGCCGGCUGGGCAACAUUCCGAGGGGACCGUCCCCUCGGUAAUGUCGAAUGGGACCCA | 0.0852 |
| GGCCGGCAUGGUCCCAGCCUCCUCGCUGGCGCCGGCUGUGCAACAUCCCGAGGGGACCGUCCCCUCGGUAAUGGCGAAUGGGACCCA | 0.393 |
| GGCCGGCAUGGUCCCAGUCUCCUCGCUGGCGCCGGCUGGGCAACAUUCCGAGGGGACCGUCCCCUCGGGAAUGGCGAAUGGGACCCA | 0.453 |
| GGCAGGCAUGGUCCCAGCCUCCUCGCUGGCGCCGGCUGGGCAACAUUCCAAGGGGACCGUCCCCUCGGUAAUGGCGAAUGGGACCCA | 0.172 |
| GGCCCGCAUGGUCCCAGCCUCCUAGCUGGCGCCGGCUGGGCAACAUUCCGAGGGGACCGUCCCCUCGGUAAUGGCGAAUGGGACCCA | 0.0811 |
| GGCCUGCAUGGUCCCAGCCUCCUCGCUGGCGCCGGCUGGGCAACAUUCCGAGGGGACCGUCCCGUCGGUAAUGGCGAAUGGGACCCA | 0.161 |
| GGCCGGCAUGGUCCCAGCCUCCUCGCUGGCGCCGGCUGGGCAACAUUCUGAGGGGACCGUCCCCUCGGUAAUGGCGAAUGGGGCCCA | 0.883 |
| GGCACGCAUGGUCCCAGCCUCCUCGCUGGCGCCGGCUGGGCAACAUUCCGAGGGGACCGUCCCCUCGGUAAUGGCGAAUGGGACCCA | 0.232 |
| GGCCAGCAUGGUCCCAGCCUCCUCGCUGGCGCCGGCUGGGCAACGUUCCGAGGGGACCGUCCCCUCGGUAAUGGCGAAUGGGACCCA | 0.196 |
| GGCCGGCAUGGUCCCAGCCCCCUCGCUGGCUCCGGCUGGGCAACAUUCCGAGGGGACCGUCCCCUCGGUAAUGGCGAAUGGGACCCA | 0.141 |
| GGCCGGCAUGGUCCCAGCCUCCUCGCUGGCGCCGGCUGGGCAGCAUUCCGAGGGGACCGUCCCCUUGGUAAUGGCGAAUGGGACCCA | 0.672 |
| GGCCGGCAUGGUCCCAGCCUCCUCGCUGGCGCCGGCUGGGCAAAAUUCCGUGGGGACCGUCCCCUCGGUAAUGGCGAAUGGGACCCA | 1.13 |
| GGCCGGCAUGGUCCCAGCCUCCUCGCUGGCGUCGGCUGGGCAACAUUCCGAGGGGGCCGUCCCCUCGGUAAUGGCGAAUGGGACCCA | 0.872 |
| GGCCGGCAUGGUACCAGCCUCCUCGCUGGCGCCGGCUGGGCAACAUUCCGAGGGGACCGUCCCCUCGGUAAUGGCGAUUGGGACCCA | 0.0449 |
| GGCCGGCAGGGUCCCAGCCUCCUCGCUGGCGCCGGCUGGGCAACAUUCCGAGGGGACCGUCCCCUCGGUAAUGGCGAAUGGGACACA | 1.02 |
| GGCCGGCAUGGUCCCAGCCUCCUCGCUGGCGCCGGCUGGGCAACAUUCCGAGGGAACCCUCCCCUCGGUAAUGGCGAAUGGGACCCA | 1.06 |
| GGCCGGCAUGGUCCCAGCCUCCUCGCUGGCGCCGGCUGGGCAACAUUCCGAGGGGACGGUUCCCUCGGUAAUGGCGAAUGGGACCCA | 0.851 |
| GGCCGGUAUGGUCCCAGCCUCCUCGCUGGCGCCGGCUGGGCAACAUUCCGAAGGGACCGUCCCCUCGGUAAUGGCGAAUGGGACCCA | 0.68 |
| GGCCGUCAUGAUCCCAGCCUCCUCGCUGGCGCCGGCUGGGCAACAUUCCGAGGGGACCGUCCCCUCGGUAAUGGCGAAUGGGACCCA | 0.0437 |

| Variant | self-cleavage |
| --- | --- |
| GGCCGGCAUGGUCCCAGCCUCCUCGCUGGCGCCGGCUGGGCAACAUUCCGAAGGGACCGUCCCCUCGGUAAUGGCCAAUGGGACCCA | 1.24 |
| GGCCGGCAUGGUCCCAGCCUCCUCGCUGGCGCCGGCUGGGCAACAUUCCGAGGGGACUGUCCCCUCUGUAAUGGCGAAUGGGACCCA | 1.12 |
| GGCCGGCAUGGUCUUAGCCUCCUCGCUGGCGCCGGCUGGGCAACAUUCCGAGGGGACCGUCCCCUCGGUAAUGGCGAAUGGGACCCA | 0.665 |
| GGCCGGCAUGGUCCAAGCCUCCUCGCUGGCGCCGGCUGGGCAACAUUCCGAGGGGGCCGUCCCCUCGGUAAUGGCGAAUGGGACCCA | 0.587 |
| GGCCGGCAUGGUCCCAGCCUCCUCGCUGGCGCCGGCUGGUCAACAUUCCUAGGGGACCGUCCCCUCGGUAAUGGCGAAUGGGACCCA | 1.01 |
| GGCCGGCAUGGUCCCAGCCUCCUCGCUGGCGCCGGCUGGGCAACAUUCCGAGGGGACCGUCCCCUCGGUAAUGUCGAAUGCGACCCA | 0.225 |
| GGCCGGCAUGGUCCCAGCCUCCUCGCUGGCGCCGGCUGGGCAACAUUCCGAGGGGACCGUCCCCUCCGUAAUGGCGAAUGGGACUCA | 0.92 |
| GGCCGGCAUGGUCCCAGCCUCCUCGCUGGCGCCGGCUGGGCAACAUUCCGAGGGGACCGUCCCCUCGGUAAUGCCGAAUGGGGCCCA | 0.104 |
| GGCCGUCAUGGUCCCAGGCUCCUCGCUGGCGCCGGCUGGGCAACAUUCCGAGGGGACCGUCCCCUCGGUAAUGGCGAAUGGGACCCA | 0 |
| GGCCGGCAUGGUCACAGCCCCCUCGCUGGCGCCGGCUGGGCAACAUUCCGAGGGGACCGUCCCCUCGGUAAUGGCGAAUGGGACCCA | 0.111 |
| GGCCGGCAUGGGCCCAGCCUCCUCGCUGGCGCCGGCUGGGCAACAUUCCGAGGGGACCGUCCCGUCGGUAAUGGCGAAUGGGACCCA | 0.492 |
| GGCCGGCAUGGUCCCGGCCUCCUCGCUGGCGCCGGCUGGGCCACAUUCCGAGGGGACCGUCCCCUCGGUAAUGGCGAAUGGGACCCA | 0.0755 |
| GGCCGGCAUGGUCCCAGCCUCCUCGCUGGCGCCGGCUGGGCAACAUUCCGAGGGGACCGACCCCUCGGUAAUGGCGAAGGGGACCCA | 0.807 |
| GGCCGGCAUGGUCCCAGCCUCCUCGCUGGCCCCGGCUGGGCAACAUUCCGAGGAGACCGUCCCCUCGGUAAUGGCGAAUGGGACCCA | 0.191 |
| GGCCGCCAUGGUCCCAGCCACCUCGCUGGCGCCGGCUGGGCAACAUUCCGAGGGGACCGUCCCCUCGGUAAUGGCGAAUGGGACCCA | 0 |
| GGCCUGCAUGGUCCCAGCCUCCUCGCUGGCGCCGGCUGGGCAACAUUCCGAGGGGACCUUCCCCUCGGUAAUGGCGAAUGGGACCCA | 0.633 |
| GGCCGGCAUGGUCCCAGCCUCCUCGCUGGCGCCGGCUGGGCAACAUUCCGAGGGGACCGUCCCUUCGGUAAUGGCGAAUGGGACUCA | 1.08 |
| GGCAGGCAUGGUCCAAGCCUCCUCGCUGGCGCCGGCUGGGCAACAUUCCGAGGGGACCGUCCCCUCGGUAAUGGCGAAUGGGACCCA | 0.198 |
| GGCCGGCAUGGUCCCAGCCUCCUCGCUGGCGCCGGCUGGGCAACAUUCCGAGGGGUCCGUCCCCUGGGUAAUGGCGAAUGGGACCCA | 0.997 |
| GGCCGACAUGGUCCCAGCCUCCUCGCUGGCGCCGGCUGGGCAACAUUCCGACGGGACCGUCCCCUCGGUAAUGGCGAAUGGGACCCA | 0.831 |
| GGCCGGCAUGGUCCCAGCCACAUCGCUGGCGCCGGCUGGGCAACAUUCCGAGGGGACCGUCCCCUCGGUAAUGGCGAAUGGGACCCA | 0.0898 |
| GGCCGGCAUGGUCCCAGCCUCCUCGCUCGCGCCGGCUGGGCAACAUUCCGAGGUGACCGUCCCCUCGGUAAUGGCGAAUGGGACCCA | 0.0248 |

| Variant | self-cleavage |
| --- | --- |
| GGCCGGCAUUGUCCCAGCCUCCUCGCUGGCGGCGGCUGGGCAACAUUCCGAGGGGACCGUCCCCUCGGUAAUGGCGAAUGGGACCCA | 0.0554 |
| GGCCGGCAUGGUCCCAGCCUGCUCGCUGGCGCCGGCUGGGCAACAUUCCGAGGGGACCGUCCCCUUGGUAAUGGCGAAUGGGACCCA | 0.0475 |
| GGCCGGCAUGGUCCCAGCCUCCUCGCUGGCACCGGCUGGGCAACAUUCCGAGGGGAGCGUCCCCUCGGUAAUGGCGAAUGGGACCCA | 0.529 |
| GGCCGGCAUGGUCCCAGCCUCCUCGCUGGCACCGGCUGGGCAACAUUCCGAGGGGAACGUCCCCUCGGUAAUGGCGAAUGGGACCCA | 0.708 |
| GGCCGGCAUGGUCCCAGCCUCCUCGCUGGCCCCGGCUGGGCAACAUUCCGAGGGGACCGUCCCCUCGGUAGUGGCGAAUGGGACCCA | 0.253 |
| GGCCGGCAUGGUCCCAGCCUCCUCGCUGGCGCCGGCUGGGCAGCAUUCCGAGGGGACCGUCCCCUCGGUAAUGGAGAAUGGGACCCA | 0.172 |
| GGCCGGCAUGGUCCCAGCCUUCUCGCUGGCGCCGGCUGGGCAACAUUCCGAGGGGACCGUCCCCUCGGUAAUGGCGUAUGGGACCCA | 0.13 |
| UGCCGGCAUGGUCCCAGCCUCCUCGCUGGCGCCGGCUGGGGAACAUUCCGAGGGGACCGUCCCCUCGGUAAUGGCGAAUGGGACCCA | 0.249 |
| GGCCGGAAUGGUCCCAGCCUCCUCGCUGGCGCCGGCUGGGCAACAUUCCGAGGGGACCGUCCCCUCGGUAAUGGCGAUUGGGACCCA | 0.0791 |
| GGCCGGCAUGAUCCCAGCCUCCUCGCUGGCGCCGGCUGGGCAACAUUCCGAGGGGACCGUCCCCUCGGAAAUGGCGAAUGGGACCCA | 0.166 |
| GGCCGGCAUGGUCCCAGCCUCCUUGCUGGCGCCGGCUGGGCAACAUUCCGAGGGGACCGUCCCCUCGGUCAUGGCGAAUGGGACCCA | 0.573 |
| GGCCGGCAUGGUCCCAGCCUCCUCGCUGCCGCCGGCUGGGCAACAUUACGAGGGGACCGUCCCCUCGGUAAUGGCGAAUGGGACCCA | 0 |
| GGCCGGCAUGGUCCCAGCCUCCUCGCUCGCGCCGGCUGGGAAACAUUCCGAGGGGACCGUCCCCUCGGUAAUGGCGAAUGGGACCCA | 0.0573 |
| GGCCGGCAUGGUCCCAGCCUCCUCGCUGGCGCCGGGUGGGCAACAUUCCGAGGGGACCGUCCCCUCGGUAAUGGCGAUUGGGACCCA | 0.0346 |
| GGCCGGCAUGGUCCCAGCCGCCUCGCUGGCGCCGGCUGGGCAACAUUCCGAGGGGACCGUCCCCUCGGUAAUGGCGAAUAGGACCCA | 0.0831 |
| GGCCGGCAUGGUCCCAGCCUCCUCGCUGGCGCCGGCUGGGCAACAUUCCGUGGGGACCGUCCCCUCGGUAAUGGCGAAUAGGACCCA | 0.344 |
| GGCCGGCAUGGUCCCAGCCUCCUCGCUGUCGCCGGCUGGGCAACAUUCCGAGGGGACCGUCCCCUCGGUAAUGGCGAGUGGGACCCA | 0.0378 |
| GGCCGGCUUGGUCCCAGCCUCCUCGCUGGCGCCGGCUGGGCAACAUUCCGAGGGGACCGUCCCCUCGGUAAUGACGAAUGGGACCCA | 0.115 |
| GGCCGGCAUGGGCCCAGCCUCCUCGCUGGCGCCGGCUGGGCAACAUUCCGAGGGGACCGUCCCCUCGGUAAUGGCGAAUGGGACUCA | 0.787 |
| GGCCGGCAUGUUCCAAGCCUCCUCGCUGGCGCCGGCUGGGCAACAUUCCGAGGGGACCGUCCCCUCGGUAAUGGCGAAUGGGACCCA | 0.155 |
